From PMC6168553 (Nature Communications, 2018)

Experiments:
[1] = target: the molecule itself; assay: cryo-EM structure; helical reconstruction of NOD2CARDS^s-RIP2CARD filaments, filament ends left out; 3.94 Å
[2] = target: the molecule itself; assay: negative-stain EM; amylose eluate (with co-purified NOD2CARDS^s) at 2.5 mg ml^−1, polymerization stimulated by proteases for 4 h at room temperature
[3] = target: the molecule itself; assay: negative-stain EM; void-volume fraction of size-exclusion chromatography after cleavage of the MBP tag by TEV
[4] = target: T1, NOD2ΔLRR (residues 1-619), MBP tag cleaved (human, UniProt Q9HC29 1-619); assay: immuno-gold labelling with negative-stain EM; purified NOD2ΔLRR mixed with a 50-fold excess of MBP-RIP2CARD, polymerization induced by TEV; rabbit anti-NOD2 and gold-conjugated anti-rabbit; conditions: both partners purified
T1 construct: NOD2 (nucleotide oligomerization domain 2), human, CARDS and NOD without the LRR domain, residues 1-619; A less aggregated SEC fraction was used; the protein forms soluble aggregates; also called MBP-NOD2ΔLRR before cleavage; source: sf21 insect cells (baculovirus), purified (amylose resin, TEV cleavage, size exclusion chromatography); not shown: MBP, N-terminal, cleaved
T1 sequence (Q9HC29 1-619, stated change not applied): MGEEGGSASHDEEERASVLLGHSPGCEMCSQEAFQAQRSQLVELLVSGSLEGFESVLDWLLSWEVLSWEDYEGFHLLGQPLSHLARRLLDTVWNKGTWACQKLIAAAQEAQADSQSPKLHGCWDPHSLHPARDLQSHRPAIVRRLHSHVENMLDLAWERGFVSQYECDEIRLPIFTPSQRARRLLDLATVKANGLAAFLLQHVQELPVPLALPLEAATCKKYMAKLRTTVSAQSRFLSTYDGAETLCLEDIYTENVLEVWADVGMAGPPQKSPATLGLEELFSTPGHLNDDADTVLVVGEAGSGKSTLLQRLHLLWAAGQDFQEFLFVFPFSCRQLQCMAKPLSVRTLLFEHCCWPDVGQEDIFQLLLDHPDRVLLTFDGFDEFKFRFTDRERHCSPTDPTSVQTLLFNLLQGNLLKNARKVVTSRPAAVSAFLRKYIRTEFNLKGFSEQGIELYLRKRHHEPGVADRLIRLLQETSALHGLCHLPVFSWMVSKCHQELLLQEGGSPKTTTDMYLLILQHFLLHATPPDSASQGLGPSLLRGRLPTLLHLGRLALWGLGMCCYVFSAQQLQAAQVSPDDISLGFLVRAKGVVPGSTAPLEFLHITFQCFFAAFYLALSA

Row | Binder | binding result [2] | further results
1 | RIP2CARD (residues 431-540), wild type, HIS-MBP tag cleaved (domain or fragment, human, UniProt O43353 431-540, looked up, RIP2 CARD domain, human, residues 431-540; The atomic model of the filament comprises residues P433 to Q518; also called RIP2CARD filament; NOD2CARDS^s-WT; source: E. coli Rosetta 2, purified (amylose resin, Superose6), HIS-MBP cleaved by P3C, Ni-NTA, dialysis; not shown: His, N-terminal, cleaved; MBP, N-terminal, cleaved) LQPGIAQQWIQSKREDIVNQMTEACLNQSLDALLSRDLIMKEDYELVSTKPTRTSKVRQLLDTTDIQGEEFAKVIVQKLKDNKQMGLQPYPEILVVSRSPSLNLLQNKSM | – | binding result [1]: binds
2 | RIP2CARD (431-540) T452A, HIS-MBP tag cleaved (domain or fragment, human, UniProt O43353 431-540, looked up, RIP2 CARD domain, human, residues 431-540; source: E. coli Rosetta 2, co-purified with NOD2CARDS^s on amylose resin, tags cleaved by proteases; not shown: His, N-terminal, cleaved; MBP, N-terminal, cleaved) LQPGIAQQWIQSKREDIVNQMAEACLNQSLDALLSRDLIMKEDYELVSTKPTRTSKVRQLLDTTDIQGEEFAKVIVQKLKDNKQMGLQPYPEILVVSRSPSLNLLQNKSM | binds | –
3 | RIP2CARD (431-540) E453A, HIS-MBP tag cleaved (domain or fragment, human, UniProt O43353 431-540, looked up, RIP2 CARD domain, human, residues 431-540; source: E. coli Rosetta 2, co-purified with NOD2CARDS^s on amylose resin, tags cleaved by proteases; not shown: His, N-terminal, cleaved; MBP, N-terminal, cleaved) LQPGIAQQWIQSKREDIVNQMTAACLNQSLDALLSRDLIMKEDYELVSTKPTRTSKVRQLLDTTDIQGEEFAKVIVQKLKDNKQMGLQPYPEILVVSRSPSLNLLQNKSM | binds | –
4 | RIP2CARD (431-540) C455A, HIS-MBP tag cleaved (domain or fragment, human, UniProt O43353 431-540, looked up, RIP2 CARD domain, human, residues 431-540; source: E. coli Rosetta 2, co-purified with NOD2CARDS^s on amylose resin, tags cleaved by proteases; not shown: His, N-terminal, cleaved; MBP, N-terminal, cleaved) LQPGIAQQWIQSKREDIVNQMTEAALNQSLDALLSRDLIMKEDYELVSTKPTRTSKVRQLLDTTDIQGEEFAKVIVQKLKDNKQMGLQPYPEILVVSRSPSLNLLQNKSM | binds | –
5 | RIP2CARD (431-540) T452K, HIS-MBP tag cleaved (domain or fragment, human, UniProt O43353 431-540, looked up, RIP2 CARD domain, human, residues 431-540; also called RIP2CARD-T452K; NOD2CARDS^s-T452K; source: E. coli Rosetta 2, co-purified with NOD2CARDS^s on amylose resin, tags cleaved by proteases; not shown: His, N-terminal, cleaved; MBP, N-terminal, cleaved) LQPGIAQQWIQSKREDIVNQMKEACLNQSLDALLSRDLIMKEDYELVSTKPTRTSKVRQLLDTTDIQGEEFAKVIVQKLKDNKQMGLQPYPEILVVSRSPSLNLLQNKSM | binds | –
6 | RIP2CARD (431-540) C455S, HIS-MBP tag cleaved (domain or fragment, human, UniProt O43353 431-540, looked up, RIP2 CARD domain, human, residues 431-540; also called RIP2CARD-C455S; NOD2CARDS^s-C455S; source: E. coli Rosetta 2, co-purified with NOD2CARDS^s on amylose resin, tags cleaved by proteases; not shown: His, N-terminal, cleaved; MBP, N-terminal, cleaved) LQPGIAQQWIQSKREDIVNQMTEASLNQSLDALLSRDLIMKEDYELVSTKPTRTSKVRQLLDTTDIQGEEFAKVIVQKLKDNKQMGLQPYPEILVVSRSPSLNLLQNKSM | binds | –
7 | RIP2CARD (residues 435-540), MBP tag cleaved (domain or fragment, human, UniProt O43353 435-540, looked up, RIP2 CARD domain, human, residues 435-540; Isotope-labelled for solid-state NMR; also called RIP2CARD VV; RIP2CARD filament; source: E. coli Rosetta 2 (BL21 star for NMR), purified (amylose resin), MBP cleaved by TEV; not shown: MBP, N-terminal, cleaved) IAQQWIQSKREDIVNQMTEACLNQSLDALLSRDLIMKEDYELVSTKPTRTSKVRQLLDTTDIQGEEFAKVIVQKLKDNKQMGLQPYPEILVVSRSPSLNLLQNKSM | – | binding result [3]: binds; binding result [4]: binds
